T1: human BCMA (B cell maturation antigen) (human, UniProt Q02223 1-184)
T1 construct: whole, on cells; also called hBCMA; TNFRSF17
T1 sequence (looked up): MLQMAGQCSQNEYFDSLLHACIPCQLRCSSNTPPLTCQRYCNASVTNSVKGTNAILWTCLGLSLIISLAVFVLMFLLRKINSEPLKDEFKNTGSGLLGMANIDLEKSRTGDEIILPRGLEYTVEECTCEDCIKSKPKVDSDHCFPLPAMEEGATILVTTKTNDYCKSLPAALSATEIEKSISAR


target: T1, human BCMA (B cell maturation antigen); test: flow cytometry, FN3 domain titration on HEK293F cells transiently expressing human BCMA, anti-His Alexa-488 detection, PRISM one-site specific binding fit; design: Bmax: unit not given here
Description: 50 uL secondary antibody in FACS buffer was added to the wells. Anti-His mAb was added at a 1/100 dilution to all of the wells except for the FACS buffer only negative control wells. The plates were incubated on ice for 1 hr. Afterwards, cells were collected and combined from two wells from all four plates to check cell count and viability using Trypan blue on the Vi-Cell system. The cell count was about 67,500/well at 96.6% viability. The cell count of the control cells that were kept on ice for comparison was 1×10⁶/mL at 95.1% viability.
After 1 hr of staining, the plates were spun at 1200 rpm for 5 min at 4° C. to pellet the cells. Buffer was discarded by inverting the plates, and 100 uL FACS buffer were added to the wells. The FACS buffer wash was repeated two more times. The plates were spun at 1200 rpm for 5 min at 4° C. to pellet the cells, and buffer was discarded by inverting the plates.
Cells were resuspended in 30 uL Intellicyt buffer (FACS buffer, 0.1% Pluronic Acid, 1 mM EDTA, SytoX Red Live/Dead Stain at a 1:1000 dilution) and mixed gently by vortexing the plates. The plates were kept on ice and read on an Intellicyt plate reader. Cells were gated in the following order: (a) cells, (b) single cells, (c) viable cells. The Geometric Mean of Alexa 488 channel was calculated, and the percentage of viable single cells was calculated.

Bmax | Kd | Binder
60700 | 0.0016 µM | G11 BCMA-specific FN3 domain (designed binder, Detected with an anti-His mAb, so the protein tested carried a His tag) MLPAPKNLVVSRITEDSARLSWTAPDAAFDSFWIRYVERLVWGEAIHLHVPGSERSYDLTGLKPGTEYVVVISGVKGGWESTPLVAPFTT
73600 | 0.13 µM | E09 BCMA-specific FN3 domain (designed binder, Detected with an anti-His mAb, so the protein tested carried a His tag) MLPAPKNLVVSRVTEDSARLSWTAPDAAFDSFRIRYVEVIAWGEAIWLVVPGSERSYDLTGLKPGTEYVVVIDGVKGGKTSIPLIAHFTT
56700 | 0.0065 µM | E02 BCMA-specific FN3 domain (designed binder, Detected with an anti-His mAb, so the protein tested carried a His tag) MLPAPKNLVVSRVTEDSARLSWTAPDAAFDSFVIVYSEPDVCGEAIVLTVPGSERSYDLTGLKPGTEYWVRIAGVKGGDFSRPLSAIFTT
51600 | 0.52 µM | F01 BCMA-specific FN3 domain (designed binder, Detected with an anti-His mAb, so the protein tested carried a His tag) MLPAPKNLVVSRVTEDSARLSWTAPDAAFDSFIIVYRENIETGEAIVLTVPGSERSYDLTGLKPGTEYYVQIAGVKGGNISFPLSAIFTT
61200 | 0.23 µM | D08 BCMA-specific FN3 domain (designed binder, Detected with an anti-His mAb, so the protein tested carried a His tag) MLPAPKNLVVSHVTEDSARLSWTAPDAAFDSFIIVYRENIETGEAIVLTVPGSERSYDLTDLKPGTEYYVQIAGVKGGNISFPLSAIFTT
72600 | 0.076 µM | G10 BCMA-specific FN3 domain (designed binder, Detected with an anti-His mAb, so the protein tested carried a His tag) MLPAPKNLVVSRVTEDSARLSWIAPDAAFDSFIIVYRENIETGEAIVLTVPGSERSYDLTGLKPGTEYYVQIAGVKGGNISFPLSAIFTT
60900 | 0.0087 µM | B03 BCMA-specific FN3 domain (designed binder, Detected with an anti-His mAb, so the protein tested carried a His tag) MLPAPKNLVVSRITEDSARLSWTAPDAAFDSFPIRYIETLIWGEAIWLDVPGSERSYDLTGLKPGTEYTVVIDGVKGGGRSQPLVATFTT
57800 | 0.0049 µM | D10 BCMA-specific FN3 domain (designed binder, Detected with an anti-His mAb, so the protein tested carried a His tag) MLPAPKNLVVSRITEDSARLSWTAPDAAFDSFPIRYIETLIWGEAIWLYVPGSERSYDLTGLKPGTEYTVVIDGVKGGGRSQPLVASFTT
57900 | 0.023 µM | C08 BCMA-specific FN3 domain (designed binder, Detected with an anti-His mAb, so the protein tested carried a His tag) MLPAPKNLVVSRITEDSARLSWTAPDAAFDSFPIRYIETLIWGEAIWLYVPGSERSYDLTGLKPGTEYTVVISGVKGGESSYPLIAAFTT
101000 | 3 µM | A08 BCMA-specific FN3 domain (designed binder, Detected with an anti-His mAb, so the protein tested carried a His tag) MLPAPKNLVVSRITEDSARLSWTAPDAAFDSFPIRYIETLIWGEAIWLDVPGSERSYDLTGLKPGTEYAVVITGVKGGRFSSPLVASFTT
58200 | 0.0042 µM | F11 BCMA-specific FN3 domain (designed binder, Detected with an anti-His mAb, so the protein tested carried a His tag) MLPAPKNLVVSRVTEDSARLSWTAPDAAFDSFPIRYIETLIWGEAIWLDVPGSERSYDLTGLKPGTEYVVVIDGVKGGDHSKPLVATFTT
51400 | 0.022 µM | A12 BCMA-specific FN3 domain (designed binder, Detected with an anti-His mAb, so the protein tested carried a His tag) MLPAPKNLVVSRITEDSARLSWTAPDAAFDSFTIKYIERATWGEAIWLNVPGSERSYDLTGLKPGTEYVVLINGVKGGPESWPLIAHFTT

From patent US20220031822A1 (Janssen / Centocor, published 2022)
